US20260184779A1 (XBIOTECH, published 2026)

Target: T1, recombinant human interleukin 1 alpha (IL-1α) (human, UniProt P01583 113-271)
T1 sequence (looked up): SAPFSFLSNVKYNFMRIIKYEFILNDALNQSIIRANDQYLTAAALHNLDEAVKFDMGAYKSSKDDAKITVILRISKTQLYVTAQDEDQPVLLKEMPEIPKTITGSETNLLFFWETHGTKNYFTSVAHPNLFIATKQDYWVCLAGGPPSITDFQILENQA
Assay: cell-based or functional assay

B1: human monoclonal antibody designated XIA13 (antibody, V domains shown)
VH: QVQLVQSGAEVKKPGSSVKVSCKASGGRFTNYAILWVRQAPGQGLQWLGGIIPIFDETDHAQDFQDRLTITVDESMTTAYMELSSLRPEDTAIYYCATGSNSYYGLYWGQGTLVTVSS
VL: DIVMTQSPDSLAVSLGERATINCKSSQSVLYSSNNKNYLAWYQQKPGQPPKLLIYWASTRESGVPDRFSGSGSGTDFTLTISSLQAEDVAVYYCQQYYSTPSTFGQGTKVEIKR
With B1 the “HUVEC-based potency assay: ICAM-1 expression on HUVEC cells by flow cytometry, IC50” value was 3.7 ng/mL.
